Assay results reported in the supplement of paper PMC12042874.
± gives the uncertainty stated by the source.

Test: amyloid nucleation score (Sup35N fusion, yeast selection) (log enrichment); library NNK2; higher = more nucleation; inactive = no reads after selection
How it was run: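 After 24 hours of induction with 100 μM copper sulfate, psi-negative yeast expressing peptides of 20 random codons fused to Sup35N were grown for 7 days at 30°C on medium lacking adenine and uracil. Input and output plasmid inserts were sequenced with Illumina, and sequences with under 100 input reads were discarded. Scores for nucleation are the DiMSum log enrichment of output over input reads, centred on the mode score of non-aggregating sequences.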

Substance | amyloid nucleation score
TSYIVDTSSLFITRASTG | 0.336 ± 0.44
MCFFMAREEASRGAKGLAER | 1.66 ± 0.19
HRYSRLRRVHYSYRSKGLNH | inactive
ISDKSVV | inactive
QFNKIDWMHKMFTSSRVNMS | -0.166 ± 0.31
HRMAPMGVISGNVLLPLSVW | inactive
HCGVLVDISFEHALIFR | -1.99 ± 0.78
DLSSALRAMRSYSHLSTVGI | inactive
RPAFTNLRQCQRAYPVGGRC | 0.195 ± 0.53
DMHCFSEGRHGGLTCAGCLR | 1.1 ± 0.19
DYSGYHFMEQVP | -0.363 ± 0.33
HMMFKSPYRCLLLNLTGYVL | 0.934 ± 0.25
KLPFICINRGWWLVGRINSS | 3.07 ± 0.18
VCRHFVRVKDQMDRTFNDKQ | 0.18 ± 0.28
SHGELEVAMPDTGNI | -0.378 ± 0.32
YLLVLFGSGTYITPTLLRIN | -1.55 ± 0.49
GVGGRVWTC | -0.998 ± 0.76
GATGGLSVCELVRCSELNRG | 0.985 ± 0.37
VFDGRYVESILSFF | 3.96 ± 0.1
RGVDYVLSCL | -1.21 ± 0.61
AEVCEVRTFVPYSCLFYSST | 5.22 ± 0.06
TSDPEFV | -0.627 ± 0.49
DITYQHDGVIE | -0.789 ± 0.32
ERMSLMGWDFIKCRISLAMS | -0.021 ± 0.65
NVLRRFNCWRYESGFSNFVN | -1.38 ± 0.36
LNLLK | -1.18 ± 1.1

Substance | amyloid nucleation score
YINSMLSSYFDSLWEGSKSR | -0.109 ± 0.27
TAHGAQWVPDWWEPVTSAYW | 1.21 ± 0.21
ICKRVVVLWHSKEPDALFVG | inactive
SFLRARLCCHMMGHSTLKYH | -0.72 ± 1.1
SRPMTWGRKDVGSGSLQDYA | 0.248 ± 0.33
AAFLAVSGFCNLPGGSTHIL | 2.38 ± 0.079
GFRFSVIGI | -0.101 ± 0.63
RGFCYNIT | 0.305 ± 0.37
MVWAQSTASMVLDLVFIAPS | 1.75 ± 0.29
CYHFCYYVLSLVWGQNPVIK | 0.108 ± 0.65
YRWNYWFVVMMRPSSEDYLR | 4.951 ± 0.047
RIEDFF | 1.19 ± 0.68
VSTTLTCEMLSVAVLFT | 0.886 ± 0.3
NRCFEGFAVARFDAGRV | -0.378 ± 1
LRVGSCNVTSLMGNLVGLDS | 1.37 ± 0.42
HNTKSYLWV | inactive
SLTSSSICHRPHTCTVCV | -0.364 ± 0.33
RCSVVNWDNHVMLALDRVGY | inactive
LNSMTILLSN | 0.54 ± 0.56
CDGTLCWKPGWYGDQKFERR | 1.32 ± 0.36
GLLVLLLETCWKLVSFDLRK | 0.561 ± 0.39
TTICVFNVGESHMRLSGSVG | -0.053 ± 0.28
LYQSYHELSFVTVHRSSKVD | 2.45 ± 0.15
WVNIYADLRLKVVAGNCCNV | 3.38 ± 0.12
WSMKGFYL | inactive
LLITR | -0.183 ± 1

Substance | amyloid nucleation score
AVCITFLSSCAIFFDSPVRV | 6.409 ± 0.047
KMMLSTRSQYPS | 0.489 ± 0.36
RDCICSVYPFAVLMGSQPLA | 9.086 ± 0.063
FFIGIQQWSYHWPVVGVYNK | inactive
LLHSSYIIK | 0.115 ± 1
VPIKGHNRHMMNYNSEKAGS | -1.13 ± 0.76
SDFIPGKMCLNCLWWFVPTR | -0.496 ± 0.36
VMCFNTMKC | 7.386 ± 0.044
YNPLLIV | 0.082 ± 0.56
GDYHSYGVVRSYFCATPSSG | 0.64 ± 0.44
YNTISDWTSLEPYTLVRVLL | 1.91 ± 0.064
LEAFWKVKSCSVRTGVYGID | -0.555 ± 0.79
TKDERFV | 0.218 ± 0.29
SYNFM | inactive
LVQMISKILYNEE | inactive
FPTFQSLRDPRHMLFRGNFM | -0.317 ± 1.1
TSNNVCCARHPI | 1.37 ± 0.29
IMRCGMLVASKFQGEGRNRT | 0.747 ± 0.43
RDIFILYD | inactive
GLLTGITILIVVDSCLGVCF | 3.99 ± 0.095
TRFCCVATHFDYNLIIFYYP | 0.554 ± 0.23
CSKLFSRGPGLAFFQFFI | inactive
PEMLHTVILGISSNHYERGL | -1.12 ± 0.74
VRGPIGHLCICSAMSLGWIH | 2.67 ± 0.11
FMLQVVGRVEVFH | 3.32 ± 0.066
YYLSFCVSNAGAPGMDLMGQ | 0.328 ± 0.65

Substance | amyloid nucleation score
QNLCDCCKYQICSVLFMGHA | 4.33 ± 0.082
LNFWLHD | 0.09 ± 1
PSVDCSEIKPIWNLVKYFLI | -0.571 ± 0.26
LAVIGVSRGMGL | 0.716 ± 0.25
GEINENGKLCGGRAQGTGTY | -0.392 ± 0.63
HGYSNNTSWAYI | 0.436 ± 0.65
LTCLFPFWRWCIPAAIEFRR | 0.901 ± 0.28
YSGWVSDS | inactive
TLGTLRQ | 1.59 ± 0.23
VFPDSIGN | inactive
KLIHWIILVWFSSGTLPCND | -0.133 ± 0.5
ATIWCCRVKGQVGSFNL | 0.868 ± 0.14
KASTRQ | 1.51 ± 0.34
LRRKEVKWLCL | 0.754 ± 0.47
QLESRRDDHRVHESADGSA | 0.466 ± 0.33
SGFKLLGFTNYVHAVSMGSQ | 3.25 ± 0.15
VQLGVHV | 0.14 ± 0.4
ITQRFKTWRCGGGDEVRQAN | 0.239 ± 0.49
LKNKSPCSR | 0.039 ± 0.29
PKQDTA | -0.967 ± 0.36
LMSQCT | -0.926 ± 0.64
NNQYINWMRKCG | -0.671 ± 0.41
RMLCSHINYLIVGMG | -0.061 ± 0.28
MWVPFASWLCK | -0.08 ± 0.5
YLCVYIRLYFMPLRYWKKMC | -0.606 ± 0.44
ILVHVSFDNRFN | 6.06 ± 0.077

Substance | amyloid nucleation score
SCDVTHGGLRQSKHGSGESG | 7.7 ± 0.083
IFIRLFVLANYCINLFSS | 3.28 ± 0.082
SVKLHSGGSWLRTWDWPRVC | 1.55 ± 0.21
IWGCKELLDVRTAQGVDGM | 3.87 ± 0.078
LRSLINCYAKVICRTYRFVG | -0.885 ± 0.61
HKCGTPFAIHIYRSKQLPGV | -0.305 ± 1
DDDRPDEAYEYDVSGF | -1.03 ± 0.54
SDISNQLMFFGRWAPRVLVD | -0.35 ± 1.1
PRWRDRVVNMKSDLDGV | 5.51 ± 0.073
YISCYCRSSFRMLSVVSDYR | 2.54 ± 0.077
DTLFNCFSCIVKLMSYIKSL | inactive
VLAGLMVNSGVL | -0.34 ± 0.3
LWYGWCKRLYFVRCHYRVSM | -0.543 ± 0.55
RFRRSVFMLMHGWRSTVFIV | 1.07 ± 0.34
VSAGVTREGLEVGTVFGP | 0.379 ± 0.44
GCSLVKAYCSVL | 0.325 ± 0.6
WGSGNGLVGLHYLASLFERN | 0.847 ± 0.58
NCFSSRGGARTFGIKLIFSV | 0.524 ± 0.51
RLCLRDQYSFGQIVDYKCFD | inactive
GNVLTVIKAKDGS | -0.606 ± 0.49
CWRVNRFYVQSSYMGFVWSV | -0.73 ± 1.1
NDTSYGAQRRVCSTFQGCVT | 0.211 ± 0.32
FGYFNVHSKSSGIMKWCGQC | -0.612 ± 0.54
QLCAMKMDSRIFCVSCFTML | 7.049 ± 0.056
